Source: US20150258192A1, “COMPOSITIONS AND METHODS FOR PREVENTING OR TREATING CHRONIC LUNG ALLOGRAFT DYSFUNCTION (CLAD) AND IDIOPATHIC PULMONARY FIBROSIS (IPF)” (priority 2014, published 2015)
No end group written: not given here.

Target: T1, NEK11(h) (Homo sapiens, UniProt Q8NG66)
T1 construct: purchased Millipore
T1 sequence (Q8NG66 1-645): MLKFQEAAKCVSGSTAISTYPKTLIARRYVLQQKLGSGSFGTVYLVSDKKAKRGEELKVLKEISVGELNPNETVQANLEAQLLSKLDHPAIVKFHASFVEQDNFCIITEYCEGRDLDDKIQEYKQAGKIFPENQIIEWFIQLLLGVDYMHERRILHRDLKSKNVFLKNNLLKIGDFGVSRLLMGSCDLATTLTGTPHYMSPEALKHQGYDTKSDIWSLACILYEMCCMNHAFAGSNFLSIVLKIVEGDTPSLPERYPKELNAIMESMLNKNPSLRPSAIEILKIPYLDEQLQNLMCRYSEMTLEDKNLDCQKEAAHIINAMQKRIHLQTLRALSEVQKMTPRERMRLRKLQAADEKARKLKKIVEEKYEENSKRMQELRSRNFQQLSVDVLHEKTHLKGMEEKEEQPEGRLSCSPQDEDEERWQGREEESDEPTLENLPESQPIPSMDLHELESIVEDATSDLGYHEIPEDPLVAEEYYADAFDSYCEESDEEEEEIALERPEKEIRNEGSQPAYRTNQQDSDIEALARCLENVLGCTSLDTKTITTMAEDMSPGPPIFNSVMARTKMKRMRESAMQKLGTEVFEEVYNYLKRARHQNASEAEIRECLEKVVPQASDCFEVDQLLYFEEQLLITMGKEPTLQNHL
Assay: Kinase Profiling Assay
Type: biochemical
Settings: peptide 100 μM
Method in brief: (§1)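 Duplicate wells; [radiolabeled] ATP phosphate onto cationic substrate; filter capture (negatively charged membrane); scintillation count; % of 100% activity control. Selectivity screen of MK2 peptide inhibitors, 266 human kinases.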

| Sequence | % activity |
| --- | --- |
| FAKLAARLYRKALARQLGVAA [MMI-0300] | 53% |
| HRRIKAWLKKIKALARQLGVAA (Mammal) [MMI-0500] | 2% |
| KAFAKLAARLYRKALARQLGVAA [MMI-0400] | 33% |
| YARAAARQARAKALNRQLGVA (Mammal) [MMI-0200] | 95% |

Target: T2, GRK7(h) (Homo sapiens, UniProt Q8WTQ7)
T2 construct: purchased Millipore
T2 sequence (Q8WTQ7 1-553): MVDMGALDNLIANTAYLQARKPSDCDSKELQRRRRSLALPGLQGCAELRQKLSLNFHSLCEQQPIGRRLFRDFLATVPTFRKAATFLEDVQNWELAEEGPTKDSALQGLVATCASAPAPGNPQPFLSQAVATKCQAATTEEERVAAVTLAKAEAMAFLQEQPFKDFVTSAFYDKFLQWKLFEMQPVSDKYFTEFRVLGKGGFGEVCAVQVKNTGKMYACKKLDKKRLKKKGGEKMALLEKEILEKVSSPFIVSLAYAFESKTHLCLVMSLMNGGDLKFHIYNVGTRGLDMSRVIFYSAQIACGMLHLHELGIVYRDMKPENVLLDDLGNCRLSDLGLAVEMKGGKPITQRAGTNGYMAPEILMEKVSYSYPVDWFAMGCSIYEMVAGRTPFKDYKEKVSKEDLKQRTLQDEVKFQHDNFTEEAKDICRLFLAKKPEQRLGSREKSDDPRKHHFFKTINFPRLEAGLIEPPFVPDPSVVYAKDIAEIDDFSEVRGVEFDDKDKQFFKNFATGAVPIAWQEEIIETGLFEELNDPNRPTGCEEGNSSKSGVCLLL
Assay: Kinase Profiling Assay
Type: biochemical
Settings: peptide 100 μM
Method in brief: as §1

| Sequence | % activity |
| --- | --- |
| FAKLAARLYRKALARQLGVAA [MMI-0300] | 122% |
| HRRIKAWLKKIKALARQLGVAA (Mammal) [MMI-0500] | 93% |
| KAFAKLAARLYRKALARQLGVAA [MMI-0400] | 100% |
| YARAAARQARAKALNRQLGVA (Mammal) [MMI-0200] | 124% |

Target: CLK3(h) (Homo sapiens, UniProt P49761)
Assay: Kinase Profiling Assay
Type: biochemical
Settings: peptide 100 μM
Method in brief: as §1

Chain of CLK3(h) (P49761 whole entry): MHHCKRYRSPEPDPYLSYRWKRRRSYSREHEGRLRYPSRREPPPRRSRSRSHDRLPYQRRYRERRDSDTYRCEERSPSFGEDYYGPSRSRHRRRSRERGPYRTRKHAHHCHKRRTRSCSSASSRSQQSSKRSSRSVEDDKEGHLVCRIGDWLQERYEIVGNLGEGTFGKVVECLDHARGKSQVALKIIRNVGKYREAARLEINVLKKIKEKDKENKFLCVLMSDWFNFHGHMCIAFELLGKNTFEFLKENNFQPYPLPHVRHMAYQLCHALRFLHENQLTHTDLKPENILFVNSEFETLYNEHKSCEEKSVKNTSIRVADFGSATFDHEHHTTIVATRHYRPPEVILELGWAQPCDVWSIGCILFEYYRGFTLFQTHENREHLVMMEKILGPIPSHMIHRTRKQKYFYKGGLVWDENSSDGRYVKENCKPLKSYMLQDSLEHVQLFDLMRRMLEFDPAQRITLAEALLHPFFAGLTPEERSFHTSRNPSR

| Sequence | % activity |
| --- | --- |
| FAKLAARLYRKALARQLGVAA [MMI-0300] | 61% |
| HRRIKAWLKKIKALARQLGVAA (Mammal) [MMI-0500] | 76% |
| KAFAKLAARLYRKALARQLGVAA [MMI-0400] | 84% |
| YARAAARQARAKALARQLGVAA [MMI-0100] | 108% |
| YARAAARQARAKALNRQLGVA (Mammal) [MMI-0200] | 76% |

Target: cKit(V654A)(h) (Homo sapiens, UniProt P10721, V654A)
Assay: Kinase Profiling Assay
Type: biochemical
Settings: peptide 100 μM
Method in brief: as §1

| Sequence | % activity |
| --- | --- |
| FAKLAARLYRKALARQLGVAA [MMI-0300] | 134% |
| HRRIKAWLKKIKALARQLGVAA (Mammal) [MMI-0500] | 223% |
| KAFAKLAARLYRKALARQLGVAA [MMI-0400] | 150% |
| YARAAARQARAKALARQLGVAA [MMI-0100] | 69% |

Target: T3, Met(D1246N)(h) (Homo sapiens, UniProt P08581, D1228N)
T3 construct: purchased Millipore
Assay: Kinase Profiling Assay
Type: biochemical
Settings: peptide 100 μM
Method in brief: as §1

| Sequence | % activity |
| --- | --- |
| FAKLAARLYRKALARQLGVAA [MMI-0300] | 82% |
| HRRIKAWLKKIKALARQLGVAA (Mammal) [MMI-0500] | 90% |
| KAFAKLAARLYRKALARQLGVAA [MMI-0400] | 31% |
| YARAAARQARAKALNRQLGVA (Mammal) [MMI-0200] | 149% |

Target: T4, MELK(h) (Homo sapiens, UniProt Q14680)
T4 construct: purchased Millipore
Assay: Kinase Profiling Assay
Type: biochemical
Settings: peptide 100 μM
Method in brief: as §1

T4 sequence (Q14680 whole entry): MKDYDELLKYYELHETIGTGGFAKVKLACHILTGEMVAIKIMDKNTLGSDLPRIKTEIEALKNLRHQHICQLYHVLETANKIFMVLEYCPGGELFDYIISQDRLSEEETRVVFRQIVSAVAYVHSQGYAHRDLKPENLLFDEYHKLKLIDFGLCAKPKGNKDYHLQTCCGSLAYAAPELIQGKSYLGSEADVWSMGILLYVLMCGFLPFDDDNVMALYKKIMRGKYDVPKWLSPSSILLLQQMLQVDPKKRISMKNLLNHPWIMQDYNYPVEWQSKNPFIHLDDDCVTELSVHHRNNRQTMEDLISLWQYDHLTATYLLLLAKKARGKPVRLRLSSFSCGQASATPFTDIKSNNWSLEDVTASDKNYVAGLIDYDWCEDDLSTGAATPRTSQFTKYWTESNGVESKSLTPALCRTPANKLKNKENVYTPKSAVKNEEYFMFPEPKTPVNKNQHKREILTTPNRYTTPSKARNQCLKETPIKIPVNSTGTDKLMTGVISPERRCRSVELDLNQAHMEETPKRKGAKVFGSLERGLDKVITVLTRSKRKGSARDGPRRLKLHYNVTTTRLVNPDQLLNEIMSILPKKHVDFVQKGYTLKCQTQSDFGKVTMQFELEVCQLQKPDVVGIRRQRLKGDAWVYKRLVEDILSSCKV

| Sequence | % activity |
| --- | --- |
| FAKLAARLYRKALARQLGVAA [MMI-0300] | 16% |
| HRRIKAWLKKIKALARQLGVAA (Mammal) [MMI-0500] | 0% |
| KAFAKLAARLYRKALARQLGVAA [MMI-0400] | 17% |
| YARAAARQARAKALARQLGVAA [MMI-0100] | 74% |
| YARAAARQARAKALNRQLGVA (Mammal) [MMI-0200] | 59% |

Target: T5, DDR2(h) (Homo sapiens, UniProt Q16832)
T5 sequence (Q16832 22-855): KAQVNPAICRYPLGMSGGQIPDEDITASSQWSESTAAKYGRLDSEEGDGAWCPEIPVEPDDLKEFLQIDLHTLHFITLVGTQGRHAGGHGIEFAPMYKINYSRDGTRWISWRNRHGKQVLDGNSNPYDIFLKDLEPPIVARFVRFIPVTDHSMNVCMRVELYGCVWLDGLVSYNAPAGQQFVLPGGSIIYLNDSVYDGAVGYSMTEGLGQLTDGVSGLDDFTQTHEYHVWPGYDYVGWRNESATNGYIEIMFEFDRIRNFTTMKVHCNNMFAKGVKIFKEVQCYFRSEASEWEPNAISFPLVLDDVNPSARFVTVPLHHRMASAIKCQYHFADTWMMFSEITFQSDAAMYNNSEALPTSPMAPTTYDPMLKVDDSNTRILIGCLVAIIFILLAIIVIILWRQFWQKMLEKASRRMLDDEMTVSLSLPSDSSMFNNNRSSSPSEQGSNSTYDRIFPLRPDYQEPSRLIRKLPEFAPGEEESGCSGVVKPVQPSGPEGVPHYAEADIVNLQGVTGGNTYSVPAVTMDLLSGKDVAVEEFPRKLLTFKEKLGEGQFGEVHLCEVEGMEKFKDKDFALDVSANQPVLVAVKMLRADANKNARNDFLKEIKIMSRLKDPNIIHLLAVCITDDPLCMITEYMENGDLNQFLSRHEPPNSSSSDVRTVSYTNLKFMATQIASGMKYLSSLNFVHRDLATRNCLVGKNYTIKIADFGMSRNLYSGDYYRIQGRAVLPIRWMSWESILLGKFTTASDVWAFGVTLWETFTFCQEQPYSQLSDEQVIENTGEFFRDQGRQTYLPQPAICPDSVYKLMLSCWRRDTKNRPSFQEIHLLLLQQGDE
Assay: Kinase Profiling Assay
Type: biochemical
Settings: peptide 100 μM
Method in brief: as §1

| Sequence | % activity |
| --- | --- |
| FAKLAARLYRKALARQLGVAA [MMI-0300] | 94% |
| HRRIKAWLKKIKALARQLGVAA (Mammal) [MMI-0500] | 79% |
| KAFAKLAARLYRKALARQLGVAA [MMI-0400] | 95% |
